{"source": "paper PMC10397247", "key": {"4H462-bA": {"molecular_target": "T1, 4H462-bA", "T1 chain": "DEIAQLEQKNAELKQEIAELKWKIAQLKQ", "test": "two-hybrid library CCNG1;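 note: natural log of median RNA to DNA barcode read ratio; higher means stronger binding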"}, "4H607-bA": {"molecular_target": "T2, 4H607-bA", "T2 chain": "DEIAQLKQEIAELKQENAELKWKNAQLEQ", "test": "two-hybrid library CCNG1"}, "4H3189-bA": {"molecular_target": "T3, 4H3189-bA", "T3 chain": "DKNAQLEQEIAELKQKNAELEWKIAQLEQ", "test": "two-hybrid library CCNG1"}, "4H3843-bA": {"molecular_target": "T4, 4H3843-bA", "T4 chain": "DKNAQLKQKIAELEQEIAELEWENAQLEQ", "test": "two-hybrid library CCNG1"}, "4H331-bA": {"molecular_target": "T5, 4H331-bA", "T5 chain": "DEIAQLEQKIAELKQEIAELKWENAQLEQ", "test": "two-hybrid library CCNG1"}, "4H967-bA": {"molecular_target": "T6, 4H967-bA", "T6 chain": "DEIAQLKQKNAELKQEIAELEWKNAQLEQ", "test": "two-hybrid library CCNG1"}, "4H2610-bA": {"molecular_target": "T7, 4H2610-bA", "T7 chain": "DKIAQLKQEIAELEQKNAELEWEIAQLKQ", "test": "two-hybrid library CCNG1"}, "4H72-bA": {"molecular_target": "T8, 4H72-bA", "T8 chain": "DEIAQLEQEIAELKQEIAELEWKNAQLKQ", "test": "two-hybrid library CCNG1"}, "4H2667-bA": {"molecular_target": "T9, 4H2667-bA", "T9 chain": "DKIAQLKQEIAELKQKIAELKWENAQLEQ", "test": "two-hybrid library CCNG1"}, "4H3782-bA": {"molecular_target": "T10, 4H3782-bA", "T10 chain": "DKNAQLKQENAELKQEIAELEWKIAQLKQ", "test": "two-hybrid library CCNG1"}, "4H918-bA": {"molecular_target": "T11, 4H918-bA", "T11 chain": "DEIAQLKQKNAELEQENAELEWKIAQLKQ", "test": "two-hybrid library CCNG1"}, "4H568-bA": {"molecular_target": "T12, 4H568-bA", "T12 chain": "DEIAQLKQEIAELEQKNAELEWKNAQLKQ", "test": "two-hybrid library CCNG1"}, "4H883-bA": {"molecular_target": "T13, 4H883-bA", "T13 chain": "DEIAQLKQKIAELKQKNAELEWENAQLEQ", "test": "two-hybrid library CCNG1"}, "4H797-bA": {"molecular_target": "T14, 4H797-bA", "T14 chain": "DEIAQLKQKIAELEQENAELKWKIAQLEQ", "test": "two-hybrid library CCNG1"}, "4H2697-bA": {"molecular_target": "T15, 4H2697-bA", "T15 chain": "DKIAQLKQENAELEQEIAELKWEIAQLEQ", "test": "two-hybrid library CCNG1"}, "4H370-bA": {"molecular_target": "T16, 4H370-bA", "T16 chain": "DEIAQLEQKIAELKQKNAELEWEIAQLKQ", "test": "two-hybrid library CCNG1"}, "4H3606-bA": {"molecular_target": "T17, 4H3606-bA", "T17 chain": "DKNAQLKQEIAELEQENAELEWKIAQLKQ", "test": "two-hybrid library CCNG1"}, "4H953-bA": {"molecular_target": "T18, 4H953-bA", "T18 chain": "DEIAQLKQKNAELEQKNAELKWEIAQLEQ", "test": "two-hybrid library CCNG1"}, "4H4001-bA": {"molecular_target": "T19, 4H4001-bA", "T19 chain": "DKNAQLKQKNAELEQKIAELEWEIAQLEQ", "test": "two-hybrid library CCNG1"}, "4H687-bA": {"molecular_target": "T20, 4H687-bA", "T20 chain": "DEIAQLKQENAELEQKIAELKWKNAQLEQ", "test": "two-hybrid library CCNG1"}, "Q7-AA": {"molecular_target": "T21, Q7-AA", "T21 chain": "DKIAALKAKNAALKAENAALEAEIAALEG", "test": "two-hybrid library CCmax"}, "Q8-AA": {"molecular_target": "T22, Q8-AA", "T22 chain": "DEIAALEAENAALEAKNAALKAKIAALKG", "test": "two-hybrid library CCmax", "details": "mean of both orientations"}, "4H491-bH": {"molecular_target": "T23, 4H491-bH", "T23 chain": "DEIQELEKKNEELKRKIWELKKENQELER", "test": "two-hybrid library CCNG1"}, "4H496-bH": {"molecular_target": "T24, 4H496-bH", "T24 chain": "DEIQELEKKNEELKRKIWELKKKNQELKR", "test": "two-hybrid library CCNG1"}, "4H342-bH": {"molecular_target": "T25, 4H342-bH", "T25 chain": "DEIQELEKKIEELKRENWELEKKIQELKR", "test": "two-hybrid library CCNG1"}, "4H3632-bH": {"molecular_target": "T26, 4H3632-bH", "T26 chain": "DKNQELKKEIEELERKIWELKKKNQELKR", "test": "two-hybrid library CCNG1"}, "4H48-bH": {"molecular_target": "T27, 4H48-bH", "T27 chain": "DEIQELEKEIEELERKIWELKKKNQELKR", "test": "two-hybrid library CCNG1"}}, "note": "Where two headings read alike, the source gives them in different places."}
{"binder": "DKIAQLKQEIAELEQKNAELEWEIAQLKQ", "note": "[4H2610-bA]", "values": [{"measurement": "interaction score", "setting": "4H462-bA", "value": 1.76}, {"measurement": "interaction score", "setting": "4H607-bA", "value": -1.15}, {"measurement": "interaction score", "setting": "4H3189-bA", "value": -0.366}, {"measurement": "interaction score", "setting": "4H3843-bA", "value": 0.444}, {"measurement": "interaction score", "setting": "4H331-bA", "value": -0.211}, {"measurement": "interaction score", "setting": "4H967-bA", "value": -1.02}, {"measurement": "interaction score", "setting": "4H2610-bA", "value": -0.2}, {"measurement": "interaction score", "setting": "4H72-bA", "value": -0.563}, {"measurement": "interaction score", "setting": "4H2667-bA", "value": 0.718}, {"measurement": "interaction score", "setting": "4H3782-bA", "value": -0.515}, {"measurement": "interaction score", "setting": "4H918-bA", "value": 1.13}, {"measurement": "interaction score", "setting": "4H568-bA", "value": -0.602}, {"measurement": "interaction score", "setting": "4H883-bA", "value": 0.538}, {"measurement": "interaction score", "setting": "4H797-bA", "value": -0.486}, {"measurement": "interaction score", "setting": "4H2697-bA", "value": 0.713}, {"measurement": "interaction score", "setting": "4H370-bA", "value": -1.17}, {"measurement": "interaction score", "setting": "4H3606-bA", "value": 0.322}, {"measurement": "interaction score", "setting": "4H953-bA", "value": 0.322}, {"measurement": "interaction score", "setting": "4H4001-bA", "value": 0.0746}, {"measurement": "interaction score", "setting": "4H687-bA", "value": -0.571}]}
{"binder": "DEIAALEAEIAALEAENAALEAENAALEG", "note": "[Q3-AA]", "values": [{"measurement": "interaction score", "setting": "Q7-AA; mean of both orientations", "value": -1.36}, {"measurement": "interaction score", "setting": "Q8-AA", "value": -1.09}]}
{"binder": "DKIAALKAKNAALKAENAALEAEIAALEG", "note": "[Q7-AA]", "values": [{"measurement": "interaction score", "setting": "Q7-AA", "value": -1.59}, {"measurement": "interaction score", "setting": "Q8-AA", "value": 2.38}]}
{"binder": "DEIQELEKKIEELKRENWELEKKIQELKR", "note": "[4H342-bH]", "values": [{"measurement": "interaction score", "setting": "4H491-bH", "value": 1.47}, {"measurement": "interaction score", "setting": "4H496-bH", "value": 0.0247}, {"measurement": "interaction score", "setting": "4H342-bH", "value": 1.38}, {"measurement": "interaction score", "setting": "4H3632-bH", "value": 1.55}, {"measurement": "interaction score", "setting": "4H48-bH", "value": -0.0388}]}
